# Reference: patent publication US20240255522A1
# Columns and labels:
# Settings in all cases: modification not given
# [1] = biological target: HLA-DRB1*04:01 MHCII molecule (human); assay: competition ELISA; 50 nM huCLIP-bio
# [2] = biological target: HLA-DRB1*09:01 MHCII molecule (human); assay: competition ELISA; 50 nM huCLIP-bio
# [3] = biological target: HLA-DRB1*08:01 MHCII molecule (human); assay: competition ELISA; 50 nM huCLIP-bio
# [4] = biological target: HLA-DRB1*15:01 MHCII molecule (human); assay: competition ELISA; 50 nM huCLIP-bio
# [5] = biological target: HLA-DRB1*11:01 MHCII molecule (human); assay: competition ELISA; 50 nM huCLIP-bio
# [6] = biological target: HLA-DRB1*04:01 MHCII molecule (human); assay: competition ELISA; 25 nM huCLIP-bio
# [7] = biological target: HLA-DRB1*09:01 MHCII molecule (human); assay: competition ELISA; 25 nM huCLIP-bio
# [8] = biological target: HLA-DRB1*08:01 MHCII molecule (human); assay: competition ELISA; 25 nM huCLIP-bio
# [9] = biological target: HLA-DRB1*15:01 MHCII molecule (human); assay: competition ELISA; 25 nM huCLIP-bio
# [10] = biological target: HLA-DRB1*11:01 MHCII molecule (human); assay: competition ELISA; 25 nM huCLIP-bio
binder,measurement,setting,value
PVSQMRMATPLLMRP [mCLIP],IC50,[1],36.5 nM
same,IC50,[2],60.7 nM
same,IC50,[3],69.4 nM
same,IC50,[4],46.1 nM
same,IC50,[5],36.8 nM
same,IC50,[6],31.2 nM
same,IC50,[7],25 nM
same,IC50,[8],36.6 nM
same,IC50,[9],14.6 nM
same,IC50,[10],22.6 nM
